Measurements from the supplement of paper PMC11246515.
± gives the standard deviation of the averaged measurements.

Experiment: total protein half-life in vivo (active degradation + dilution); higher = more stable protein
[1] = E. coli NCM3722 delta-hslV, growth: N-lim chemostat, doubling time 6 h
[2] = E. coli NCM3722 delta-lon, growth: N-lim chemostat, doubling time 6 h
[3] = wild type E. coli NCM3722, growth: C-lim chemostat, doubling time 3 h
[4] = wild type E. coli NCM3722, growth: N-lim chemostat, doubling time 6 h
[5] = wild type E. coli NCM3722, growth: P-lim chemostat, doubling time 6 h
[6] = E. coli NCM3722 delta-clpP delta-lon delta-hslV, growth: N-lim chemostat, doubling time 6 h
[7] = wild type E. coli NCM3722, growth: C-lim chemostat, doubling time 6 h
[8] = wild type E. coli NCM3722, growth: C-lim chemostat, doubling time 12 h
[9] = E. coli NCM3722 delta-clpP, growth: N-lim chemostat, doubling time 6 h
[10] = E. coli NCM3722 delta-smpB, growth: N-lim chemostat, doubling time 6 h
[11] = wild type E. coli NCM3722, growth: N-lim chemostat, doubling time 12 h
[12] = wild type E. coli NCM3722, growth: P-lim chemostat, doubling time 12 h

Sequence	total protein half-life in vivo [1]	total protein half-life in vivo [2]	total protein half-life in vivo [3]	total protein half-life in vivo [4]	total protein half-life in vivo [5]	total protein half-life in vivo [6]	total protein half-life in vivo [7]	total protein half-life in vivo [8]	total protein half-life in vivo [9]	total protein half-life in vivo [10]	total protein half-life in vivo [11]	total protein half-life in vivo [12]
MIRKSATGVIVALAVIWGGGTWYTGTQIQPGVEKFIKDFNDAKKKGEHAYDMTLSYQNFDKGFFNSRFQMQMTFDNGAPDLNIKPGQKVVFDVDVEHGPLPITMLMHGNVIPALAAAKVNLVNNELTQPLFIAAKNKSPVEATLRFAFGGSFSTTLDVAPAEYGKFSFGEGQFTFNGDGSSLSNLDIEGKVEDIVLQLSPMNKVTAKSFTIDSLARLEEKKFPVGESESKFNQINIINHGEDVAQIDAFVAKTRLDRVKDKDYINVNLTYELDKLTKGNQQLGSGEWSLIAESIDPSAVRQFIIQYNIAMQKQLAAHPELANDEVALQEVNAALFKEYLPLLQKSEPTIKQPVRWKNALGELNANLDISIADPAKSSSSTNKDIKSLNFDVKLPLNVVTETAKQLNLSEGMDAEKAQKQADKQISGMMTLGQMFQLITIDNNTASLQLRYTPGKVVFNGQEMSEEEFMSRAGRFVH	5.74 h	6.55 h	2.57 h	6.18 h	5.4 h	–	–	–	–	–	–	–
MIRLSEQSPLGTGRHRKCYAHPEDAQRCIKIVYHRGDGGDKEIRRELKYYAHLGRRLKDWSGIPRYHGTVETDCGTGYVYDVIADFDGKPSITLTEFAEQCRYEEDIAQLRQLLKQLKRYLQDNRIVTMSLKPQNILCHRISESEVIPVVCDNIGESTLIPLATWSKWCCLRKQERLWKRFIAQPALAIALQKDLQPRESKTLALTSREA	–	–	3.22 h	–	–	3.47 h	7.68 h	10.7 h	–	–	–	–
MIRNVLLAFMICSGMTLLGGCSSVMSHTGGKEGTYPGTRASATMIGDDETNWGTKSLAILDMPFTAVMDTLLLPWDVFRKDSSVRSRVEKSEANAQATNAVIPPARMPDN [P0ADM4]	5.46 ± 0.49 h	5.9 ± 0.34 h	2.6 ± 0.12 h	5.84 ± 0.094 h	4.8 ± 0.24 h	5.58 ± 0.24 h	4.71 ± 0.37 h	8.87 ± 1.3 h	6 ± 0.66 h	4.43 ± 0.12 h	11 ± 1.4 h	11.1 ± 0.31 h
MIRQRRRALTPEQQQEMGQQAATRMMTYPPVVMAHTVAVFLSFDGELDTQPLIEQLWRAGKRVYLPVLHPFSAGNLLFLNYHPQSELVMNRLKIHEPKLDVRDVLPLSRLDVLITPLVAFDEYGQRLGMGGGFYDRTLQNWQHYKTQPVGYAHDCQLVEKLPVEEWDIPLPAVVTPSKVWEW [P0AC28]	–	2.6 ± 0.54 h	2.75 ± 0.068 h	2.59 h	3.85 ± 0.24 h	4.93 ± 0.7 h	4.81 ± 0.41 h	7.66 ± 1.6 h	3.88 ± 0.18 h	2.58 h	4.35 h	7.8 ± 0.34 h
MISANRPIINLDLDLLRTFVAVADLNTFAAAAAAVCRTQSAVSQQMQRLEQLVGKELFARHGRNKLLTEHGIQLLGYARKILRFNDEACSSLMFSNLQGVLTIGASDESADTILPFLLNRVSSVYPKLALDVRVKRNAYMAEMLESQEVDLMVTTHRPSAFKALNLRTSPTHWYCAAEYILQKGEPIPLVLLDDPSPFRDMVLATLNKADIPWRLAYVASTLPAVRAAVKAGLGVTARPVEMMSPDLRVLSGVDGLPPLPDTEYLLCYDPSSNNELAQVIYQAMESYHNPWQYSPMSAPEGDDSLLIERDIE	2.546 ± 0.023 h	3.25 h	2.45 ± 0.064 h	3.28 ± 1.1 h	3.43 ± 0.079 h	–	4.7 ± 0.26 h	7.62 ± 0.41 h	5.56 ± 0.33 h	2.713 ± 0.022 h	3.66 ± 0.051 h	6.34 ± 0.77 h
MISDSKLLASAAWDAQSLNELKAKAGEDPAANIRPVARQVEGMFVQMMLKSMRDALPKDGLFSSEHTRLYTSMYDQQIAQQMTAGKGLGLAEMMVKQMTPEQPLPEESTPAAPMKFPLETVVRYQNQALSQLVQKAVPRNYDDSLPGDSKAFLAQLSLPAQLASQQSGVPHHLILAQAALESGWGQRQIRRENGEPSYNLFGVKASGNWKGPVTEITTTEYENGEAKKVKAKFRVYSSYLEALSDYVGLLTRNPRYAAVTTAASAEQGAQALQDAGYATDPHYARKLTNMIQQMKSISDKVSKTYSMNIDNLF	–	–	0.391 h	–	–	–	–	–	–	–	–	–
MISRVTEALSKVKGSMGSHERHALPGVIGDDLLRFGKLPLCLFICIILTAVTVVTTAHHTRLLTAQREQLVLERDALDIEWRNLILEENALGDHSRVERIATEKLQMQHVDPSQENIVVQK [P0AEN4]	2.91 h	4.25 ± 0.28 h	2.6 ± 0.074 h	4.3 ± 0.56 h	4.04 ± 0.16 h	4.86 ± 0.82 h	3.85 h	7.71 ± 1.4 h	3.72 ± 0.074 h	3.44 ± 0.1 h	5.19 ± 0.39 h	5.75 ± 1.9 h
MISSLWIAKTGLDAQQTNMDVIANNLANVSTNGFKRQRAVFEDLLYQTIRQPGAQSSEQTTLPSGLQIGTGVRPVATERLHSQGNLSQTNNSKDVAIKGQGFFQVMLPDGSSAYTRDGSFQVDQNGQLVTAGGFQVQPAITIPANALSITIGRDGVVSVTQQGQAAPVQVGQLNLTTFMNDTGLESIGENLYTETQSSGAPNESTPGLNGAGLLYQGYVETSNVNVAEELVNMIQVQRAYEINSKAVSTTDQMLQKLTQL [P0ABX5]	–	–	1.53 ± 0.27 h	–	–	4.91 ± 2.6 h	5.1 ± 3.6 h	6.45 ± 1.9 h	> 8 h	–	–	–
MISVFDIFKIGIGPSSSHTVGPMKAGKQFTDDLIARNLLKDVTRVVVDVYGSLSLTGKGHHTDIAIIMGLAGNLPDTVDIDSIPSFIQDVNTHGRLMLANGQHEVEFPVDQCMNFHADNLSLHENGMRITALAGDKVVYSQTYYSIGGGFIVDEEHFGQQDSAPVEVPYPYSSAADLQKHCQETGLSLSGLMMKNELALHSKEELEQHLANVWEVMRGGIERGISTEGVLPGKLRVPRRAAALRRMLVSQDKTTTDPMAVVDWINMFALAVNEENAAGGRVVTAPTNGACGIIPAVLAYYDKFIREVNANSLARYLLVASAIGSLYKMNASISGAEVGCQGEVGVACSMAAAGLAELLGASPAQVCIAAEIAMEHNLGLTCDPVAGQVQVPCIERNAIAAVKAVNAARMALRRTSEPRVCLDKVIETMYETGKDMNAKYRETSRGGLAMKIVACD	–	–	–	–	–	3.9 h	–	–	–	–	–	–
MITHFRQAIEETLPWLSSFGADPAGGMTRLLYSPEWLETQQQFKKRMAASGLETRFDEVGNLYGRLNGTEYPQEVVLSGSHIDTVVNGGNLDGQFGALAAWLAIDWLKTQYGAPLRTVEVVAMAEEEGSRFPYVFWGSKNIFGLANPDDVRNICDAKGNSFVDAMKACGFTLPNAPLTPRQDIKAFVELHIEQGCVLESNGQSIGVVNAIVGQRRYTVTLNGESNHAGTTPMGYRRDTVYAFSRICHQSVEKAKRMGDPLVLTFGKVEPRPNTVNVVPGKTTFTIDCRHTDAAVLRDFTQQLENDMRAICDEMDIGIDIDLWMDEEPVPMNKELVATLTELCEREKLNYRVMHSGAGHDAQIFAPRVPTCMIFIPSINGISHNPAERTNITDLAEGVKTLALMLYQLAWQK	–	–	2.76 ± 0.21 h	–	3.54 h	–	3.86 ± 0.11 h	7.08 ± 1.6 h	–	2.26 ± 0.15 h	3.88 h	6.32 h
MITIDGNGAVASVAFRTSEVIAIYPITPSSTMAEQADAWAGNGLKNVWGDTPRVVEMQSEAGAIATVHGALQTGALSTSFTSSQGLLLMIPTLYKLAGELTPFVLHVAARTVATHALSIFGDHSDVMAVRQTGCAMLCAANVQEAQDFALISQIATLKSRVPFIHFFDGFRTSHEINKIVPLADDTILDLMPQVEIDAHRARALNPEHPVIRGTSANPDTYFQSREATNPWYNAVYDHVEQAMNDFSAATGRQYQPFEYYGHPQAERVIILMGSAIGTCEEVVDELLTRGEKVGVLKVRLYRPFSAKHLLQALPGSVRSVAVLDRTKEPGAQAEPLYLDVMTALAEAFNNGERETLPRVIGGRYGLSSKEFGPDCVLAVFAELNAAKPKARFTVGIYDDVTNLSLPLPENTLPNSAKLEALFYGLGSDGSVSATKNNIKIIGNSTPWYAQGYFVYDSKKAGGLTVSHLRVSEQPIRSAYLISQADFVGCHQLQFIDKYQMAERLKPGGIFLLNTPYSADEVWSRLPQEVQAVLNQKKARFYVINAAKIARECGLAARINTVMQMAFFHLTQILPGDSALAELQGAIAKSYSSKGQDLVERNWQALALARESVEEVPLQPVNPHSANRPPVVSDAAPDFVKTVTAAMLAGLGDALPVSALPPDGTWPMGTTRWEKRNIAEEIPIWKEELCTQCNHCVAACPHSAIRAKVVPPEAMENAPASLHSLDVKSRDMRGQKYVLQVAPEDCTGCNLCVEVCPAKDRQNPEIKAINMMSRLEHVEEEKINYDFFLNLPEIDRSKLERIDIRTSQLITPLFEYSGACSGCGETPYIKLLTQLYGDRMLIANATGCSSIYGGNLPSTPYTTDANGRGPAWANSLFEDNAEFGLGFRLTVDQHRVRVLRLLDQFADKIPAELLTALKSDATPEVRREQVAALRQQLNDVAEAHELLRDADALVEKSIWLIGGDGWAYDIGFGGLDHVLSLTENVNILVLDTQCYSNTGGQASKATPLGAVTKFGEHGKRKARKDLGVSMMMYGHVYVAQISLGAQLNQTVKAIQEAEAYPGPSLIIAYSPCEEHGYDLALSHDQMRQLTATGFWPLYRFDPRRADEGKLPLALDSRPPSEAPEETLLHEQRFRRLNSQQPEVAEQLWKDAAADLQKRYDFLAQMAGKAEKSNTD	2.72 ± 0.21 h	2.87 ± 0.075 h	2.14 ± 0.34 h	2.57 ± 0.12 h	3.77 ± 0.17 h	4.62 ± 0.54 h	3.35 ± 0.38 h	5.06 ± 0.26 h	3.16 ± 0.26 h	2.17 ± 0.18 h	3.64 ± 0.31 h	6.3 ± 0.33 h
